The values below come from US20060275250A1, “Reactive polymers and copolymers, method of their preparation and their use” (priority 2003, published 2006).

≈ marks a conversion by molar mass, not a printed value.

The conditions of data set [1]: clinical testing; cumulative dose reached 1680 mg/m^2; cited from earlier work.
Data set [2] has as its system ConA-stimulated mouse T-splenocytes. Description: In vitro cytotoxicity, [3H]thymidine incorporation, ConA-stimulated mouse T-splenocytes. As to conditions: Splenocyte, 50% decrease in proliferation. The format is cell-based. The procedure:
(§1) In vitro cytotoxicity tests were performed by a standard method on ConA-stimulated and nonstimulated mouse T-splenocytes and on a tumour line of mouse T-cell lymphom EL-4. Cytotoxicity was followed by a change of incorporation of [^3H]thymidine into cells incubated in a medium containing the tested sample in various concentrations. The cytotoxicity was expressed by the IC50 factor (the substance concentration at which a 50% decrease in proliferation of tested cells is observed).
For orientation: Uptake of a labelled nucleoside into DNA is a usual measure of proliferation.

For data set [3], the system named is mouse T-cell lymphom EL-4. Kind of data set: In vitro cytotoxicity, [3H]thymidine incorporation, EL-4 tumour line. It is filed as cell-based. Particulars: mouse T-cell lymphoma EL-4 line, 50% decrease in proliferation. How it is done: as §1
For data set [4], the system named is human melanoma. Description: Treatment of human melanoma in nu-nu mice. The format is in vivo. Particulars: compared with the conjugate from ONp or Su reactive polymer, FIG. 3. The text has this:
The properties of the conjugate were compared with those of the conjugate prepared from the classic ONp reactive polymer. […] The synthesis using the reactive polymer according to the invention proceeded faster, a polymer with a smaller content of reactive groups (2 mol %) could be used for obtaining the same product, and in the resulting conjugate no unmodified protein or unreacted polymer was present (the conversion of the reaction of reactive groups was higher).
A star-like poly(HMPA)—RNase A conjugate was prepared from a semitelechelic polymer prepared according to Example 3 by the same procedure as in the synthesis starting from poly(HPMA) with succinimidyl end group. The star conjugate was purified from low-molecular-weight materials by preparative gel chromatography (Sephacryl S300, column 26×600 mm, flow-rate 12.5 ml/h, distilled water). After concentration using an ultrafiltration membrane (PM 30), the product was lyophilized. Comparing the conjugate syntheses using polymers with OSu and TT reactive groups, the latter led to higher reaction yields and much smaller amounts of unreacted (hydrolyzed) polymer in the reaction mixture.

On to “N-(2-hydroxypropyl)methacrylamide copolymer doxorubicin [PK1]”, for which the “changes in cardial functions” value in data set [1] is “no serious changes in cardial functions were observed”. `COc1cccc2c1C(=O)c1c(O)c3c(c(O)c1C2=O)C[C@@](O)(C(=O)CO)C[C@@H]3O[C@H]1C[C@H](N)[C@H](O)[C@H](C)O1` [Dox, doxorubicin]: the IC50 in data set [2] was 0.07 µg/mL (≈ 0.129 µM); in data set [3] it was 0.03 µg/mL (≈ 0.0552 µM).

B1: star-like poly(HMPA)—RNase A conjugate (conjugate, UniProt P61823 27-150, looked up)
Ribonuclease pancreatic: KETAAAKFERQHMDSSTSAASSSNYCNQMMKSRNLTKDRCKPVNTFVHESLADVQAVCSQKNVACKNGQTNCYQSYSTMSITDCRETGSSKYPNCAYKTTQANKHIIVACEGNPYVPVHFDASV
modifications: star-like poly(HPMA) polymer conjugate
Regarding B1, in data set [4], the “biological properties / in vivo activity in the treatment of human melanoma” value is given as “active under in vivo conditions equally well as the conjugate prepared from reactive Su ester”.

As a reminder, the IC50 is the midpoint of a concentration-inhibition curve. The low end stands for inhibition by little substance, the high end for a need for much substance.
